The values below come from US20220106580A1.

A value given as a limit tells only on which side of the number the result lay.

Experiment [1] deals with asialofetuin (ASF) (UniProt P12763). The experiment is described as follows: cell-based or functional assay.
The target is the same in experiment [2]. The experiment is described as follows: saturation binding of GFP fluorescence to ASF adsorbed onto plastic, [GFP]=0-10 µM.

UniProt P12763, sequence (P12763 19-359 limits assumed): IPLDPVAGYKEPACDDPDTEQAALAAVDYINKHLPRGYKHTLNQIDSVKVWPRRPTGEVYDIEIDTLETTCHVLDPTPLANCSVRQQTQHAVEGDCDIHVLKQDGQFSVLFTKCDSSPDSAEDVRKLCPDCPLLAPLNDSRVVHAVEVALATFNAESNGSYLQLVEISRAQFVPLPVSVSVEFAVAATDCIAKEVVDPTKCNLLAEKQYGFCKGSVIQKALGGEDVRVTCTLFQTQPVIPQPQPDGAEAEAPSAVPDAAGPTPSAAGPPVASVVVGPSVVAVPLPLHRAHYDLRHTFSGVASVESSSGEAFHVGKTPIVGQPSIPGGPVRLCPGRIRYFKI

In the case of “wild-type galectin-3 (WT-G3) (from UniProt P17931 2-250)”, in the experiment with asialofetuin (ASF) [1], the WT-G3 concentration at which insoluble aggregates with 7 uM ASF are detected at 420 nm was greater than 2.5 µM and the absorbance of 10 uM WT-G3 plus 7 uM ASF in PBS came out at 0.4 absorbance.

Consider “GFP-TT-G3 (superfolder green fluorescent protein - TriggerTrimer coiled-coil - human galectin-3; trimeric nanoassembly)”, for which, in the experiment with asialofetuin (ASF) [2], the concentration approaching saturation was found to be 2 µM.
